Target: GINS (HIS-(3C)-Sld5, Psf1, Psf2, Psf3) for structural and fluorescence polarisation studies, Q9BRT9;Q14691;Q9Y248;Q9BRX5
Experiment: fluorescence polarisation
Details: point at the highest concentration, 150 µM; parent: est. 180; read off a plot

“fluorescently labelled GINI-core peptide (Ala478-Gly497), WT L490P; L491P” showed a response of 3 mP.

Reference: article PMC10899662, “TopBP1 utilises a bipartite GINS binding mode to support genome replication” (Nature Communications, 2024)
